Experimental data taken from publication PMC7795666.
Read-outs that look alike come from different tables or passages of the source.

Key:
[1] = molecular target: F-actin (chicken skeletal actin) (chicken) (UniProt P68139)
[2] = molecular target: pyrene-labeled F-actin (chicken skeletal actin) (chicken) (UniProt P68139); assay: stopped-flow transient kinetics (pyrene-actin fluorescence); no nucleotide; k'+A from linear fits of kobs; k'-A from mixing 1 µM pyrene-actomyosin complex with excess unlabeled F-actin; 1/K'A calculated as k'-A/k'+A; 20 °C, 20 mM MOPS, 100 mM KCl, 5 mM MgCl2, 1 mM DTT, pH 7.0
[3] = molecular target: pyrene-labeled F-actin (chicken skeletal actin) (chicken) (UniProt P68139); assay: stopped-flow (pyrene-actin fluorescence amplitude); multiple turnover: 2 µM myosin and 15 µM pyrene-actin mixed with 20 µM ATP; signal normalised to 100% of myosin bound to actin without nucleotide; fraction strongly bound from the change in total amplitude
[4] = molecular target: pyrene-labeled F-actin (chicken skeletal actin) (chicken) (UniProt P68139); assay: double-mixing stopped-flow (pyrene-actin fluorescence quench); weak-to-strong transition, single turnover: 2 µM myosin mixed with sub-equimolar ATP (1.8 µM), aged 3 s, then mixed with 20 µM pyrene-actin; double exponential fits; 20 °C
[5] = molecular target: pyrene-labeled F-actin (chicken skeletal actin) (chicken) (UniProt P68139); assay: stopped-flow transient kinetics (pyrene-actin fluorescence); with ADP (ADP-myosin); k'+DA from linear dependence of kobs on pyrene-actin concentration; k'-DA from 1 µM pyrA.M pre-incubated with excess ADP mixed with excess unlabeled F-actin; 1/K'DA calculated as k'-DA/k'+DA; 20 °C, 20 mM MOPS, 100 mM KCl, 5 mM MgCl2, 1 mM DTT, pH 7.0
[6] = molecular target: F-actin (chicken skeletal actin) (chicken) (UniProt P68139); assay: double-mixing stopped-flow, actin-activated Pi release (MDCC-PBP fluorescence); M.D.Pi state; multiple turnover: 2 µM myosin mixed with 200 µM ATP, aged 0.1 s, then mixed with increasing F-actin in excess ADP, 5 µM MDCC-PBP; hyperbolic fit kobs = k'+4[actin]/(1/K'DPA+[actin]); 20 °C, 20 mM MOPS, 100 mM KCl, 5 mM MgCl2, 1 mM DTT, pH 7.0
[7] = molecular target: pyrene-labeled F-actin (chicken skeletal actin) (chicken) (UniProt P68139); assay: double-mixing stopped-flow (pyrene-actin fluorescence quench); weak-to-strong transition, single turnover: 2 µM myosin mixed with sub-equimolar ATP (1.8 µM), aged 3 s, then mixed with 20 µM pyrene-actin; double exponential fits; 20 °C; remark: listed apart in the source
[8] = molecular target: pyrene-labeled F-actin (chicken skeletal actin) (chicken) (UniProt P68139); assay: stopped-flow (pyrene-actin fluorescence amplitude); multiple turnover: 2 µM myosin and 15 µM pyrene-actin mixed with 20 µM ATP; signal normalised to 100% of myosin bound to actin without nucleotide; fraction strongly bound from the change in total amplitude; remark: listed apart in the source

Row | Kapp of the actin-activated steady-state ATPase (F-actin concentration at kcat/2), NADH-coupled assay [1] [µM] | kcat/Kapp (catalytic efficiency) of the actin-activated steady-state ATPase [1] [M⁻¹ s⁻¹] | Kd [2] [nM] | koff [2] [s⁻¹] | kon [2] [M⁻¹ s⁻¹] | percent strongly actin-bound with ATP (experimental duty ratio) [3] [%] | k'weak-strong (observed rate of the weak-to-strong actin-binding transition) [4] [s⁻¹] | Kd [5] [nM] | koff [5] [s⁻¹] | kon [5] [M⁻¹ s⁻¹] | Kd [6] [nM] | k'+4K'DPA (second order rate constant of M.D.Pi binding to actin) [6] [M⁻¹ s⁻¹] | k'weak-strong (observed rate of the weak-to-strong actin-binding transition) [7] [s⁻¹] | percent strongly actin-bound with ATP (experimental duty ratio) [8] [%] | Substance
1 | > 100 | < 30000 | 10 | 0.004 | 610000 |  |  |  |  |  |  |  |  |  | M765^AA-2R, D. discoideum myosin-2 motor domain (amino acids 1-765) with T647A, T648A fused to two alpha-actinin repeats (from UniProt P08799 1-765) (domain or fragment)
2 | 54 | 140000 | 11 | 0.005 | 610000 | 35 | 2.3 | 24 | 0.005 | 180000 | 18000 | 790000 | 2.6 | 45 | M765^GGG-2R, D. discoideum myosin-2 motor domain (amino acids 1-765) with the two W-loop threonines replaced by three glycines, fused to two alpha-actinin repeats (from UniProt P08799 1-765) (domain or fragment)
3 | > 100 | < 30000 | 5.7 | 0.003 | 640000 |  |  | 63 | 0.006 | 120000 | 94000 | 40000 | 1 |  | M765^wt-2R, D. discoideum myosin-2 motor domain (amino acids 1-765) fused to an artificial lever of two alpha-actinin repeats (from UniProt P08799 1-765) (domain or fragment)
